From paper PMC5715260, “Increasing the length and hydrophobicity of the C‐terminal sequence of transthyretin strengthens its binding affinity to retinol binding protein” (FEBS Open Bio, 2017)

Molecular target: Human retinol binding protein (RBP) (human, UniProt P02753 19-201)
Test: native gel or EMSA; purified TTR (0.5 uM) incubated with human RBP (0-4 uM) at 4 °C for 2 h; free and RBP-bound TTR separated by native PAGE (10%), western blot with anti-TTR and ECL; Kd by Scatchard analysis assuming a 1:2 TTR:RBP complex; low TTR/RBP molar ratio
Conditions: both partners purified

- Kd: 1420 nM
B1: Crocodylus porosus transthyretin (TTR), recombinant (natural protein)
chain: not shown
notes: Transthyretin, Crocodylus porosus, recombinant wild type; The discussion says all TTRs were secreted as a tetramer; also called C. porosus TTR; crocTTR; source: Pichia pastoris, secreted into the culture medium, purified (preparative native PAGE)
